Patent publication US20030175819A1 (BURNHAM INSTITUTE, published 2003)
*: point of attachment. RhodamineB = CCN(CC)c1ccc2c(-c3ccccc3C(=O)*)c3ccc(=[N+](CC)CC)cc-3oc2c1; Ahx = NCCCCCC(=O)O

Experiments:
[1] = target: T1, GFP-HN (Green Fluorescent Protein fused to wild-type, full-length Humanin, cytosolic / nuclear-encoded form) (human, UniProt P42212 1-238 = GFP); assay: co-immunoprecipitation from HEK293T cells (anti-GFP IP, anti-myc blot)
T1 construct: Humanin cDNA in the XhoI/HindIII sites of GFP-C1 (pEGFP-C1), so GFP is N-terminal; also called GFP-HN(N); GFP-Humanin

[2] = target: Recombinant Bcl-XL protein (UniProt Q07817 1-211); assay: fluorescence polarization assay
Chain of Recombinant Bcl-XL protein (Q07817 1-211): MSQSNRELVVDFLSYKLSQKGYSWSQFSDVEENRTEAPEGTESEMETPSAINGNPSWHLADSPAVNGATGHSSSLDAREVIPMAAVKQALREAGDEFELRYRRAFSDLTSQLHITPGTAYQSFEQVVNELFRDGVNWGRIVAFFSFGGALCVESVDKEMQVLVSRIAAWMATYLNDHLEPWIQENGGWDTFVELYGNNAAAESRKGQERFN
Procedure: (§1) In this example, the in vitro binding assay is a fluorescence polarization assay (FPA). For this experiment, full-length Bax protein was produced in bacteria and purified. […] The extent of peptide binding was then monitored by measuring polarization of monochromatic light passed through the sample, where peptide binding to the bulkier protein slows the rate of peptide tumbling in solution, enhancing the polarization effect.
(§2) Fluorescence Polarization Assays were performed as follows. […] Fluorescence polarization was measured using an AnalystTM AD Assay Detection System (LJL Biosystem, Sunnyvale, Calif.).

[3] = target: T2, purified recombinant full-length Bax protein (from E. coli BL21 harboring pTYB1-Bax) (human, UniProt Q07812 1-192); assay: fluorescence polarization assay, various concentrations of purified recombinant Bax with 40 nM rhodamine-conjugated Humanin peptide
T2 construct: also called recombinant Bax
T2 sequence (Q07812 whole entry): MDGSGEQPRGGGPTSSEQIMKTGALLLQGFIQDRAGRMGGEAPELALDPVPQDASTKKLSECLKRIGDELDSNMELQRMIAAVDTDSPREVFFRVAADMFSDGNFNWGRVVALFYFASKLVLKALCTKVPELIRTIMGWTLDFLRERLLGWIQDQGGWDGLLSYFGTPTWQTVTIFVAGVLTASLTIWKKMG
Procedure: as §1, §2

Binder | binding result [1] | binding result [2] | Kd [3]
myc-tagged Bok (from pcDNA3-myc) (other, UniProt Q9UMX3 1-212, looked up, not shown: small tags and cut ends) MEVLRRSSVFAAEIMDAFDRSPTDKELVAQAKALGREYVHARLLRAGLSWSAPERAAPVPGRLAEVCAVLLRLGDELEMIRPSVYRNVARQLHISLQSEPVVTDAFLAVAGHIFSAGITWGKVVSLYAVAAGLAVDCVRQAQPAMVHALVDCLGEFVRKTLATWLRRRGGWTDVLKCVVSTDPGLRSHWLVAALCSFGRFLKAAFFVLLPER | no binding | – | –
myc-tagged Bak (from pcDNA3-myc) (other, UniProt Q16611 1-211, looked up, not shown: small tags and cut ends) MASGQGPGPPRQECGEPALPSASEEQVAQDTEEVFRSYVFYRHQQEQEAEGVAAPADPEMVTLPLQPSSTMGQVGRQLAIIGDDINRRYDSEFQTMLQHLQPTAENAYEYFTKIATSLFESGINWGRVVALLGFGYRLALHVYQHGLTGFLGQVTRFVVDFMLHHCIARWIAQRGGWVAALNLGNGPILNVLVVLGVVLLGQFVVRRFFKS | no binding | – | –
myc-tagged Bcl-B (from pcDNA3-myc) (other, UniProt Q9HD36 1-204, looked up, not shown: small tags and cut ends) MVDQLRERTTMADPLRERTELLLADYLGYCAREPGTPEPAPSTPEAAVLRSAAARLRQIHRSFFSAYLGYPGNRFELVALMADSVLSDSPGPTWGRVVTLVTFAGTLLERGPLVTARWKKWGFQPRLKEQEGDVARDCQRLVALLSSRLMGQHRAWLQAQGGWDGFCHFFRTPFPLAFWRKQLVQAFLSCLLTTAFIYLWTRLL | no binding | – | –
{RhodamineB-Ahx}-MAPRGFSCLLLLTSEIDLPVKRRA-NH2 (also called rhodamine-HN; rhodamine-conjugated HN peptide) [rhodamine-conjugated synthetic purified Humanin peptide] | – | no binding | ~2 nM
